In one assay the target is VEGFR2 (Homo sapiens, UniProt P35968). Kind of assay: Confocal / structured illumination microscopy of VEGF165a-TMR and VEGFR2 location after RTKI pre-treatment. The conditions noted are these: RTKI 30 min pre-incubation, then 10 nM VEGF165a-TMR 30 min. The assay is classed as cell-based. Details: full length VEGFR2, tagged with the bioluminescent protein NanoLuc; IL-6 signal peptide (N); expressed in transfected cells. As to the method:
On the day of the assay, cells were washed three times with HBSS/0.1% protease free BSA (vehicle). Receptor tyrosine kinase inhibitors were added at this point as aliquots to the appropriate wells and cells incubated for 30 min at 37 °C. Cells were then stimulated with 10 nM VEGF165a-TMR for 30 min at 37 °C in the dark.
All cells were then fixed using 3% PFA/PBS (10 min at room temperature), washed with PBS and mounted onto slides using Prolong Gold antifade reagent (P10144; Thermo Fisher Scientific, USA). TetraSpeck™ microspheres (0.1 μm; T7279, Thermo Fisher Scientific, USA) were included in each experiment to allow X/Y/Z channel alignment correction in image processing. […] Images were manually processed with consistent raw scaling between and within experiments.

In a further assay the target is T1, NLuc-VEGFR2 (Homo sapiens, UniProt P35968).
T1 construct: full length VEGFR2, tagged with the bioluminescent protein NanoLuc; IL-6 signal peptide (N); expressed in transfected cells
Kind of assay: NanoBRET ligand binding (saturation/competition) in living HEK293T NLuc-VEGFR2 cells. The conditions noted are these: maximal response relative to binding of VEGF165a-TMR alone; RTKI 30 min pre-treatment, 60 min ligand. As to the method: On the day of the assay, medium was replaced with 50 μl per well HBSS/0.1% protease free BSA. Where appropriate, RTKIs were added 30 min prior to agonist. For competition experiments, a fixed concentration of fluorescent VEGF165a-TMR was added simultaneously with competing unlabeled VEGF isoforms to triplicate wells for the time specified (10, 30 or 60 min) and plates co-incubated at 37 °C in the dark. For saturation experiments a range of concentrations of VEGF165a-TMR were added in the presence or absence of a competing concentration (30 nM) of unlabeled VEGF165a and incubated for 60 min at 37 °C in the dark. The NanoLuc substrate furimazine (N1130; Promega Corporation, USA) was then added at a final concentration of 10 μM. […] For all experiments, sequential recordings were performed at room temperature using a PHERAstar FS plate reader (BMG Labtech, Germany) using 460 nm (80 nm bandpass; donor NanoLuc emission) and >610 nm longpass filters (acceptor emission). Raw BRET ratios were calculated from the ratio of acceptor to donor emission values. For real-time ligand association kinetics experiments, cells were incubated with vehicle for 30 min at 37 °C. Furimazine (10 μM) was then added and plates equilibrated at 37 °C in the PHERAstar FS plate reader for 5 min.
Equilibrium binding: All data were analysed using Prism 6 (GraphPad; San Diego, CA, USA). NanoBRET competition experiments were fitted as raw BRET ratios using non-linear least squares regression (variable slope) with no constraints used. Saturation curves were fitted simultaneously for total (VEGF165a-TMR alone) and non-specific binding (top concentration of competing VEGF165a alone) using both one and two site fits. Background and non-specific binding parameters were shared across all data sets.
Binding affinities (Ki) of the unlabeled ligands were calculated using the Cheng-Prusoff equation: Ki=IC50/1+[L]/KD where [L] is the concentration of fluorescent ligand used (nM). KD values (nM) were derived from saturation binding curves. […]
(In general: BRET reads energy transfer from a luciferase to a nearby fluorophore.)

The target of assay [1] is NLuc-VEGFR2 (full length human VEGFR2 with NanoLuc on its N-terminus) (human) (UniProt P35968). Kind of assay: FRET or BRET; NanoBRET competition on living HEK293T NLuc-VEGFR2 cells; 1 μM cediranib 30 min at 37 °C, then VEGF165a-TMR (0.5-3 nM) with unlabeled VEGF165a for 10 min at 37 °C.
Assay [2] shares this target. Nature of the assay: FRET or BRET; NanoBRET competition on living HEK293T NLuc-VEGFR2 cells; 1 μM cediranib 30 min at 37 °C, then VEGF165a-TMR (0.5-3 nM) with unlabeled VEGF165a for 60 min at 37 °C.
The target is the same in assay [3]. Kind of assay: FRET or BRET; NanoBRET competition on living HEK293T NLuc-VEGFR2 cells; vehicle 30 min at 37 °C, then VEGF165a-TMR (0.5-3 nM) with unlabeled VEGF165a for 10 min at 37 °C.
For assay [4] the target is unchanged. Nature of the assay: FRET or BRET; NanoBRET competition on living HEK293T NLuc-VEGFR2 cells; fixed VEGF165a-TMR (0.1-3 nM) added simultaneously with increasing unlabeled VEGF isoform, 60 min at 37 °C, HBSS/0.1% BSA; IC50 (molar) converted to pKi by Cheng-Prusoff; also linear regression of IC50 against [VEGF165a-TMR]; apparent.
For assay [5] the target is unchanged. Nature of the assay: FRET or BRET; NanoBRET competition on living HEK293T NLuc-VEGFR2 cells; 1 μM cediranib 30 min at 37 °C, then VEGF165a-TMR (0.5-3 nM) with unlabeled VEGF165a for 30 min at 37 °C.
The target is the same in assay [6]. Kind of assay: FRET or BRET; NanoBRET competition on living HEK293T NLuc-VEGFR2 cells; vehicle 30 min at 37 °C, then VEGF165a-TMR (0.5-3 nM) with unlabeled VEGF165a for 60 min at 37 °C.
Assay [7] shares this target. Kind of assay: FRET or BRET; NanoBRET competition on living HEK293T NLuc-VEGFR2 cells; vehicle 30 min at 37 °C, then VEGF165a-TMR (0.5-3 nM) with unlabeled VEGF165a for 30 min at 37 °C.
Assay [8] shares this target. Kind of assay: FRET or BRET; NanoBRET real-time association kinetics on living HEK293T NLuc-VEGFR2 cells; VEGF165a-TMR 1-20 nM, read every 30 s for 16 min at 37 °C; kobs against concentration, linear only at the three lowest concentrations.
Assay [9] shares this target. Kind of assay: FRET or BRET; NanoBRET saturation on living HEK293T NLuc-VEGFR2 cells; VEGF165a-TMR 0.1-3 nM with or without 30 nM unlabeled VEGF165a (non-specific binding), 60 min at 37 °C, HBSS/0.1% BSA; one site fit; apparent.
The target is the same in assay [10]. Nature of the assay: FRET or BRET; NanoBRET saturation on living HEK293T NLuc-VEGFR2 cells, 30 min pre-incubation with 1 μM cediranib (Fig. 6b).
Assay [11] deals with VEGF165a-TMR (fluorescent VEGF165a labeled with 6-TMR-PEG-CBT on a single N-terminal cysteine of each protomer) (human). Nature of the assay: SDS-PAGE with and without DTT, fluorescence scan; purified VEGF165a-TMR in the presence or absence of 100 mM DTT, scanned on a Typhoon 9400 (Ex 532 nm, Em 580 nm).
For assay [12] the target is unchanged. Nature of the assay: fluorescence correlation spectroscopy; solution FCS of VEGF165a-TMR (0.25-10 nM) in HBSS with 0.1% protease-free BSA; also without BSA and with 10 mM DTT (30 min at 37 °C); number of fluorescent particles against the concentration calculated for a dimer.
In assay [13] the target is NLuc-VEGFR2 (full length human VEGFR2 with NanoLuc on its N-terminus) (human) (UniProt P35968). Kind of assay: FRET or BRET; NanoBRET saturation on living HEK293T NLuc-VEGFR2 cells, without cediranib (Fig. 6b).
Assay [14] concerns the target T2, NLuc-VEGFR2 (full length human VEGFR2 with NanoLuc on its N-terminus) (human, UniProt P35968-1 20-1356).
T2 construct: VEGFR2, human, subcloned from an Origene plasmid (NM_002253); called full length VEGFR2; Open reading frame: IL-6 signal peptide, NanoLuc, Gly-Ser-Ser-Gly(AIA) linker, VEGFR2 (vector pF-sNnK CMV/neo); also called NanoLuc VEGFR2; NanoLuc-tagged VEGFR2; not shown: NanoLuc, N-terminal, kept
Kind of assay: FRET or BRET; NanoBRET competition on living HEK293T NLuc-VEGFR2 cells; fixed VEGF165a-TMR (0.1-3 nM) added simultaneously with increasing unlabeled VEGF isoform, 60 min at 37 °C, HBSS/0.1% BSA; IC50 (molar) converted to pKi by Cheng-Prusoff; also linear regression of IC50 against [VEGF165a-TMR]; apparent. The conditions noted are these: one partner purified.

Where “and” joins values, the source holds several entries; their conditions need not be identical. Equal entries are not always repeated. Entries after “also recorded” stand apart in the source; their conditions may differ.

Consider nine molecules from paper PMC5457915, “Real-time analysis of the binding of fluorescent VEGF165a to VEGFR2 in living cells: Effect of receptor tyrosine kinase inhibitors and fate of internalized agonist-receptor complexes” (Biochemical Pharmacology, 2017).

T1 sequence (P35968 20-1356): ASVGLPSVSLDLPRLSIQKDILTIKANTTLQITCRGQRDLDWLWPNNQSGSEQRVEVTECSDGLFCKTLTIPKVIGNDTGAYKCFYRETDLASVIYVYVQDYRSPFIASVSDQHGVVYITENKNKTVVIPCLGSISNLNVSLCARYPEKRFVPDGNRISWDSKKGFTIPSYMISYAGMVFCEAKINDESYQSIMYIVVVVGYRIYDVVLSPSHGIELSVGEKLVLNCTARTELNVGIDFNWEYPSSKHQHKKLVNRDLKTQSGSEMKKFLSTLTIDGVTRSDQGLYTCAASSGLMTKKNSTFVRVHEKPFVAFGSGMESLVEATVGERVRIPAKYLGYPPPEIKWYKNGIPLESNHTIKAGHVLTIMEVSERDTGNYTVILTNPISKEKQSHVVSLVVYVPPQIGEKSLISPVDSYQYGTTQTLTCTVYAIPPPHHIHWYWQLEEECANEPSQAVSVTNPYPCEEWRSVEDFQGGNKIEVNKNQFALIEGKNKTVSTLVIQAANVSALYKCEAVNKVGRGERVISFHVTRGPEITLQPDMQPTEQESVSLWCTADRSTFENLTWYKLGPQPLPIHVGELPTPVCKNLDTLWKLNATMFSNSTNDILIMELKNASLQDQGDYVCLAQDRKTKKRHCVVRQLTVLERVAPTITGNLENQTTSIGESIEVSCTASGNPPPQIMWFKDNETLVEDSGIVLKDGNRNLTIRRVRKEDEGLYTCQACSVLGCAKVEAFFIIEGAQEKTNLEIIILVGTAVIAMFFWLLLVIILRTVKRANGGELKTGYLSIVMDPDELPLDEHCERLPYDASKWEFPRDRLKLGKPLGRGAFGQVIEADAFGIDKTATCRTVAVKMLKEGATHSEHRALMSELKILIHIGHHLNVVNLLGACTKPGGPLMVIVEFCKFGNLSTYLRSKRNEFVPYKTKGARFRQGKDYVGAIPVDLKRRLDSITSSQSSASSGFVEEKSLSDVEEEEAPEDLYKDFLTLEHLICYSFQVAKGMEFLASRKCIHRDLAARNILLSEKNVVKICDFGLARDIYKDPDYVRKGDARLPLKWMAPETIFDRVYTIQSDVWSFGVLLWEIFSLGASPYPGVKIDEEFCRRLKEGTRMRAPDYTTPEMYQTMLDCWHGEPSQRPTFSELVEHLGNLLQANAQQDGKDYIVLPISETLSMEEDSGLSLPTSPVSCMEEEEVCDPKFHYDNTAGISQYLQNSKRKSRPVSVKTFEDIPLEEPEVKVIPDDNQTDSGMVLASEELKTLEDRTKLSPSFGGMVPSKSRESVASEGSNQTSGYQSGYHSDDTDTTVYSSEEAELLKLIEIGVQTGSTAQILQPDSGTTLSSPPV
Sequence of NLuc-VEGFR2 (full length human VEGFR2 with NanoLuc on its N-terminus) (human) (P35968 20-1356): as above
Sequence of VEGFR2 (P35968 20-1356): as above
T2 sequence (P35968 20-1356): as above

As to `COc1cc2c(Oc3ccc4[nH]c(C)cc4c3F)ncnc2cc1OCCCN1CCCC1` [Cediranib], the “effect on VEGFR2 internalization by VEGF165a-TMR / cellular location of VEGF165a-TMR” value at VEGFR2 is listed as “prevented; also recorded: largely localised to the cell membrane”. Besides, the “NanoBRET % Increase in binding of 10 nM VEGF165a-TMR” value (“NanoBRET % Increase in binding” below) on NLuc-VEGFR2 is 139.0 ± 4.4% and 139.0 ± 2.0 (4) %.
For `Cc1ccc(Nc2nccc(N(C)c3ccc4c(C)n(C)nc4c3)n2)cc1S(N)(=O)=O` [Pazopanib], the “effect on VEGFR2 internalization by VEGF165a-TMR / cellular location of VEGF165a-TMR” value on VEGFR2 is on record as “prevented”. Further, the “NanoBRET % Increase in binding” value at NLuc-VEGFR2 is reported as 144.8 ± 3.5 (4) %.
Consider `COc1cc2c(Nc3ccc(Br)cc3F)ncnc2cc1OCC1CCN(C)CC1` [Vandetanib], for which the “effect on VEGFR2 internalization by VEGF165a-TMR / cellular location of VEGF165a-TMR” value at VEGFR2 is recorded as “prevented”. At NLuc-VEGFR2, the “NanoBRET % Increase in binding” value was 152.8 ± 7.1 (4) %.
What is called pKi is the Ki on a negative log10 scale, so that one unit is a factor of ten. Regarding “VEGF165a (recombinant human, R&D Systems) (ligand)”, the pKi in assay [1] turned out to be 9.17; in [2], 9.18; in [3], 8.93; in [4], 9.81; in [5], 9.23; in assay [6], 9.28. In [7], the pKi is 8.99. The Ki in [4] amounted to 0.22 nM.
What is called koff is the first-order rate constant of dissociation. Low readings indicate a long-lived complex, high ones a short-lived complex. By kon is commonly meant the rate constant with which the complex forms. The stoichiometry N is the number of molecules, sites or subunits per partner or assembly. In the case of “VEGF165a-TMR (fluorescent VEGF165a labeled with 6-TMR-PEG-CBT on a single N-terminal cysteine of each protomer) (ligand)”, the Kd was found to be 2.27 nM in [8]; 0.92 nM in [9]; 1.18 nM in [10]; 0.85 nM in [4]; 1.14 nM in assay [13]. For the same molecule, the koff in [8] came to 0.00183 s⁻¹. This molecule displayed a kon in assay [8] of 797000 M⁻¹ s⁻¹. For the same molecule, the stoichiometry N in [11] and in assay [12] was 2 throughout.

B1: VEGF165b (recombinant human, R&D Systems) (ligand)
chain: APMAEGGGQNHHEVVKFMDVYQRSYCHPIETLVDIFQEYPDEIEYIFKPSCVPLMRCGGCCNDEGLECVPTEESNITMQIMRIKPHQGQHIGEMSFLQHNKCECRPKKDRARQENPCGPCSERRKHLFVQDPQTCKCSCKNTDSRCKARQLELNERTCRSLTRKD
As to B1, the pKi in assay [14] stood at 9.41.

B2: VEGF145a (recombinant human, R&D Systems) (ligand)
chain: APMAEGGGQNHHEVVKFMDVYQRSYCHPIETLVDIFQEYPDEIEYIFKPSCVPLMRCGGCCNDEGLECVPTEESNITMQIMRIKPHQGQHIGEMSFLQHNKCECRPKKDRARQEKKSVRGKGKGQKRKRKKSRYKSWSVCDKPRR
On to B2, for which, in assay [14], the pKi was determined as 8.74.

B3: VEGF121a (recombinant human, R&D Systems) (ligand)
chain: APMAEGGGQNHHEVVKFMDVYQRSYCHPIETLVDIFQEYPDEIEYIFKPSCVPLMRCGGCCNDEGLECVPTEESNITMQIMRIKPHQGQHIGEMSFLQHNKCECRPKKDRARQEKCDKPRR
As to B3, the pKi in [14] came to 9.47.

B4: VEGF189a (recombinant human, R&D Systems) (ligand)
chain: APMAEGGGQNHHEVVKFMDVYQRSYCHPIETLVDIFQEYPDEIEYIFKPSCVPLMRCGGCCNDEGLECVPTEESNITMQIMRIKPHQGQHIGEMSFLQHNKCECRPKKDRARQEKKSVRGKGKGQKRKRKKSRYKSWSVPCGPCSERRKHLFVQDPQTCKCSCKNTDSRCKARQLELNERTCRCDKPRR
With B4, the pKi in [14] turned out to be 8.99.
